Values joined by “and” are separate entries in the source; they are usually repeats but may differ in a detail not shown here. Equal values may be shown once.
How the values were obtained:
Test in all cases: cell-based or functional assay
[1] = molecular target: hemagglutinin (HA) of influenza A/California/04/2009 (H1N1) (influenza A virus (H1N1))
[2] = molecular target: T1, hemagglutinin (HA) of influenza A/Hong Kong/4801/2014 (H3N2) (influenza A virus (H3N2))
[3] = molecular target: T2, hemagglutinin (HA) of influenza A/Michigan/45/2015 (H1N1)pdm09 (influenza A virus (H1N1))
[4] = molecular target: hemagglutinin (HA) of influenza A/Florida/70609/2017 (H3N2) (influenza A virus (H3N2))
[5] = molecular target: hemagglutinin (HA) of influenza A/Florida/71210/2017 (H3N2) (influenza A virus (H3N2))
[6] = molecular target: hemagglutinin (HA) of influenza A/Latvia/30314/2017 (H3N2) (influenza A virus (H3N2))
[7] = molecular target: hemagglutinin (HA) of influenza A/Spain/2609001/2018 (H1N1) (influenza A virus (H1N1))
[8] = molecular target: hemagglutinin (HA) of influenza A/Spain/2604004/2018 (H3N2) (influenza A virus (H3N2))
[9] = molecular target: hemagglutinin (HA) of influenza A/Serbia/0502013/2018 (H1N1) (influenza A virus (H1N1))
[10] = molecular target: hemagglutinin (HA) of influenza A/Bulgaria/10101/2017 (H3N2) (influenza A virus (H3N2))
[11] = molecular target: hemagglutinin (HA) of influenza A/Singapore/2401001/2018 (H3N2) (influenza A virus (H3N2))
[12] = molecular target: hemagglutinin (HA) of influenza A/Florida/71268/2017 (H3N2) (influenza A virus (H3N2))
[13] = molecular target: hemagglutinin (HA) of influenza A/Belarus/1003001/2018 (H3N2) (influenza A virus (H3N2))
[14] = molecular target: hemagglutinin (HA) of influenza A/Georgia/0720001/2018 (H1N1) (influenza A virus (H1N1))
[15] = molecular target: hemagglutinin (HA) of influenza A/Singapore/INFIMH-16 0019/2016 (H3N2) (influenza A virus (H3N2))
[16] = molecular target: hemagglutinin (HA) of influenza A/Georgia/0720004/2018 (H3N2) (influenza A virus (H3N2))
[17] = molecular target: hemagglutinin (HA) of influenza A/Pennsylvania/0725006/2018 (H3N2) (influenza A virus (H3N2))
[18] = molecular target: hemagglutinin (HA) of influenza A/Florida/70604/2017 (H3N2) (influenza A virus (H3N2))
[19] = molecular target: hemagglutinin (HA) of influenza A/California/7/2009 (H1N1) (influenza A virus (H1N1))
[20] = molecular target: hemagglutinin (HA) of influenza A/Florida/70702/2017 (H1N1) (influenza A virus (H1N1))
[21] = molecular target: T2, hemagglutinin (HA) of influenza …; remark: listed apart in the source
[22] = molecular target: hemagglutinin (HA) of influenza A/France/1307001/2018 (H1N1) (influenza A virus (H1N1))
[23] = molecular target: hemagglutinin (HA) of influenza A/Latvia/30101/2017 (H3N2) (influenza A virus (H3N2))
[24] = molecular target: T1, hemagglutinin (HA) of influenza A/Hong …; remark: listed apart in the source
[25] = molecular target: hemagglutinin (HA) of influenza A/Florida/70327/2017 (H3N2) (influenza A virus (H3N2))
[26] = molecular target: hemagglutinin (HA) of influenza A/Thailand/2702008/2018 (H1N1) (influenza A virus (H1N1))
[27] = molecular target: hemagglutinin (HA) of influenza A/Latvia/0303004/2018 (H3N2) (influenza A virus (H3N2))
[28] = molecular target: hemagglutinin (HA) of influenza A/Bulgaria/0106011/2018 (H3N2) (influenza A virus (H3N2))
[29] = molecular target: hemagglutinin (HA) of influenza A/France/1306001/2018 (H1N1) (influenza A virus (H1N1))
[30] = molecular target: hemagglutinin (HA) of influenza A/France/1302001/2018 (H1N1) (influenza A virus (H1N1))
[31] = molecular target: hemagglutinin (HA) of influenza A/Latvia/0303005/2018 (H1N1) (influenza A virus (H1N1))
[32] = molecular target: hemagglutinin (HA) of influenza A/Malay sia/1701001/2018 (H1N1) (influenza A virus (H1N1))
[33] = molecular target: hemagglutinin (HA) of influenza A/Florida/70303/2017 (H3N2) (influenza A virus (H3N2))
[34] = molecular target: hemagglutinin (HA) of influenza A/Brisbane/02/2018 (H1N1) (influenza A virus (H1N1))
[35] = molecular target: hemagglutinin (HA) of influenza A/Serbia/0502016/2018 (H1N1) (influenza A virus (H1N1))
[36] = molecular target: hemagglutinin (HA) of influenza A/Switzerland/8060/2017 (H3N2) (influenza A virus (H3N2))
[37] = molecular target: hemagglutinin (HA) of influenza A/Sydney/0903001/2018 (H3N2) (influenza A virus (H3N2))
[38] = molecular target: hemagglutinin (HA) of influenza A/Georgia/0720003/2018 (H3N2) (influenza A virus (H3N2))
[39] = molecular target: hemagglutinin (HA) of influenza A/Kansas/14/2017 (H3N2) (influenza A virus (H3N2))
[40] = molecular target: hemagglutinin (HA) of influenza A/Thailand/2702006/2018 (H3N2) (influenza A virus (H3N2))
[41] = molecular target: hemagglutinin (HA) of influenza A/North Carolina/71330/2017 (H3N2) (influenza A virus (H3N2))
[42] = molecular target: hemagglutinin (HA) of influenza A/Ohio/0717002/2018 (H3N2) (influenza A virus (H3N2))
[43] = molecular target: hemagglutinin (HA) of influenza A/Pennsylvania/0725005/2018 (H3N2) (influenza A virus (H3N2))
[44] = molecular target: hemagglutinin (HA) of influenza A/Latvia/0304001/2018 (H1N1) (influenza A virus (H1N1))
[45] = molecular target: hemagglutinin (HA) of influenza A/Spain/2602001/2018 (H1N1) (influenza A virus (H1N1))

B1: VIS410 (antibody, V domains shown)
VH: QVQLLETGGGLVKPGQSLKLSCAASGFTFTSYAMHWVRQPPGKGLEWVAVVSYDGNYKYYADSVQGRFTISRDNSKNTLYLQMNSLRAEDTAVYYCAKDSRLRSLLYFEWLSQGYFNPWGQGTTLTVSS
VL: DIQMTQSPSSLSASVGDRVTITCRSSQSITFDYKNYLAWYQQKPGKAPKLLIYWGSYLESGVPSRFSGSGSGTDFTLTISSLQPEDFATYYCQQHYRTPPSFGQGTKVEIK
EC50, virus infection of MDCK-London cells (NP ELISA microneutralization) [1]: ~0.006 µM and ~0.9 µg/ml | EC50, NP ELISA infection assay, both assay formats [2]: 10 nM and 20 nM | EC50, virus infection of MDCK-London cells (NP ELISA microneutralization) [2]: ~0.01 µM and ~1.5 µg/ml | EC50 (µM) - Replicate 1, CPE assay [3]: 0.013 µM | EC50 (µM) - Replicate 2, CPE assay [3]: 0.011 µM | IC50, phenotypic IC50 assay (virus infection of MDCK cells) [4]: 2.41 µg/mL | IC50, phenotypic IC50 assay (virus infection of MDCK cells) [5]: 0.97 µg/mL | IC50, phenotypic IC50 assay (virus infection of MDCK cells) [6]: 1 µg/mL | IC50, phenotypic IC50 assay (virus infection of MDCK cells) [7]: 0.43 µg/mL | IC50, phenotypic IC50 assay (virus infection of MDCK cells) [8]: 0.92 µg/mL | IC50, phenotypic IC50 assay (virus infection of MDCK cells) [9]: 0.67 µg/mL | IC50, phenotypic IC50 assay (virus infection of MDCK cells) [10]: 0.22 µg/mL | IC50, phenotypic IC50 assay (virus infection of MDCK cells) [11]: 1.17 µg/mL | IC50, phenotypic IC50 assay (virus infection of MDCK cells) [12]: 3.14 µg/mL | IC50, phenotypic IC50 assay (virus infection of MDCK cells) [13]: 1.26 µg/mL | IC50, phenotypic IC50 assay (virus infection of MDCK cells) [14]: 0.71 µg/mL | IC50, phenotypic IC50 assay (virus infection of MDCK cells) [15]: 1.35 µg/mL | IC50, phenotypic IC50 assay (virus infection of MDCK cells) [16]: 0.97 µg/mL | IC50, phenotypic IC50 assay (virus infection of MDCK cells) [17]: 1.5 µg/mL | IC50, phenotypic IC50 assay (virus infection of MDCK cells) [18]: 1.23 µg/mL | IC50, phenotypic IC50 assay (virus infection of MDCK cells) [19]: 0.52 µg/mL | IC50, phenotypic IC50 assay (virus infection of MDCK cells) [20]: 0.41 µg/mL | IC50, phenotypic IC50 assay (virus infection of MDCK cells) [21]: 0.89 µg/mL | IC50, phenotypic IC50 assay (virus infection of MDCK cells) [22]: 0.86 µg/mL | IC50, phenotypic IC50 assay (virus infection of MDCK cells) [23]: 0.28 µg/mL | IC50, phenotypic IC50 assay (virus infection of MDCK cells) [24]: 1.65 µg/mL | IC50, phenotypic IC50 assay (virus infection of MDCK cells) [25]: 0.67 µg/mL | IC50, phenotypic IC50 assay (virus infection of MDCK cells) [26]: 0.55 µg/mL | IC50, phenotypic IC50 assay (virus infection of MDCK cells) [27]: 4.47 µg/mL | IC50, phenotypic IC50 assay (virus infection of MDCK cells) [28]: 1.67 µg/mL | IC50, phenotypic IC50 assay (virus infection of MDCK cells) [29]: 0.91 µg/mL | IC50, phenotypic IC50 assay (virus infection of MDCK cells) [30]: 0.86 µg/mL | IC50, phenotypic IC50 assay (virus infection of MDCK cells) [31]: 0.87 µg/mL | IC50, phenotypic IC50 assay (virus infection of MDCK cells) [32]: 0.4 µg/mL | IC50, phenotypic IC50 assay (virus infection of MDCK cells) [33]: 0.34 µg/mL | IC50, phenotypic IC50 assay (virus infection of MDCK cells) [34]: 0.55 µg/mL | IC50, phenotypic IC50 assay (virus infection of MDCK cells) [35]: 0.37 µg/mL | IC50, phenotypic IC50 assay (virus infection of MDCK cells) [36]: 1.07 µg/mL | IC50, phenotypic IC50 assay (virus infection of MDCK cells) [37]: 1.49 µg/mL | IC50, phenotypic IC50 assay (virus infection of MDCK cells) [38]: 0.49 µg/mL | IC50, phenotypic IC50 assay (virus infection of MDCK cells) [39]: 2.65 µg/mL | IC50, phenotypic IC50 assay (virus infection of MDCK cells) [40]: 1.13 µg/mL | IC50, phenotypic IC50 assay (virus infection of MDCK cells) [41]: 0.92 µg/mL | IC50, phenotypic IC50 assay (virus infection of MDCK cells) [42]: 0.81 µg/mL | IC50, phenotypic IC50 assay (virus infection of MDCK cells) [43]: 2.2 µg/mL | IC50, phenotypic IC50 assay (virus infection of MDCK cells) [44]: 0.57 µg/mL | IC50, phenotypic IC50 assay (virus infection of MDCK cells) [45]: 0.42 µg/mL

From patent US20200308257A1 (VISTERRA, published 2020)
